Biological target: recombinant AIF (UniProt Q9Z0X1)
Assay: SPR

Sequence of UniProt Q9Z0X1 (Q9Z0X1 102-612): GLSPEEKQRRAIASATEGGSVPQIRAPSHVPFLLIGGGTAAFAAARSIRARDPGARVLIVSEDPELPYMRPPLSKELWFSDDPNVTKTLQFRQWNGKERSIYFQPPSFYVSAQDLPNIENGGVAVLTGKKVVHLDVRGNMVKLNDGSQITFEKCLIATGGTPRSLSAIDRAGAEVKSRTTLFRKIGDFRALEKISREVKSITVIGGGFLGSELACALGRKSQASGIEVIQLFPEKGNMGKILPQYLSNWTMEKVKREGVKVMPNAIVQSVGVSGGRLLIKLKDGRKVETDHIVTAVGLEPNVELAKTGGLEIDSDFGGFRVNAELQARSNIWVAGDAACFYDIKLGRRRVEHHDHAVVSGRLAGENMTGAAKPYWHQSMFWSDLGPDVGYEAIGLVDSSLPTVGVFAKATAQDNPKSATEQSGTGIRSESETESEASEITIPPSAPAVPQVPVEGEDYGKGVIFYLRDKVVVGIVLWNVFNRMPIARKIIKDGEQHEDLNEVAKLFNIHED

- response (RU) on injection of 25 nM CypA: 123 RU
Substance: recombinant CypA (from UniProt P62937 1-165) (natural protein)

Source: paper PMC2118669
